Data from article PMC9482650, “Quantitative fragmentomics allow affinity mapping of interactomes” (Nature Communications, 2022).
Blank lines part the entries; values can stand above or below the binder they belong to.

What was measured:
Assay in all cases: holdup assay
Parameters in all cases: key: below the threshold = too weak to quantify, mostly under pKd 3.1 to 4
LNX2_2, Q8N448 = target: T1, LNX2_2, Q8N448
T1 sequence (Q8N448 334-432, limits assumed, looked up): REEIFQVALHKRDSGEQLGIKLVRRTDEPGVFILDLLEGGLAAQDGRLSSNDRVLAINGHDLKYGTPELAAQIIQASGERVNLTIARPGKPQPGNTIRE

MAGI1_2, Q96QZ7 = target: MAGI1_2, Q96QZ7
PTPN3, P26045 = target: PTPN3, P26045
Inadl_8, Q8NI35 = target: Inadl_8, Q8NI35
CASK, O14936 = target: CASK, O14936
GRASP, Q7Z6J2 = target: GRASP, Q7Z6J2
ARHGEF12, Q9NZN5-2 = target: ARHGEF12, Q9NZN5-2
NHERF3_1, Q5T2W1 = target: T2, NHERF3_1, Q5T2W1
T2 sequence (Q5T2W1 4-100, limits assumed, looked up): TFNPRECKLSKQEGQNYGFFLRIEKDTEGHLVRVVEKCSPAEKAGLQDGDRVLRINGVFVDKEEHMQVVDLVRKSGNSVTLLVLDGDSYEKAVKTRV

GRIP2_3, Q9C0E4 = details: plain residues with an end cap or a label only (N-terminal biotin on a linker: ahx)
APBA2_1, Q99767 = target: T3, APBA2_1, Q99767
T3 sequence (Q99767 563-664, limits assumed, looked up): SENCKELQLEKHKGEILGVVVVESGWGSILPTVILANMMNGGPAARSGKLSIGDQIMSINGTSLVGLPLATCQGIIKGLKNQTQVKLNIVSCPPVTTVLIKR

GRIP1_2, Q9Y3R0 = target: T4, GRIP1_2, Q9Y3R0; details: plain residues with an end cap or a label only (N-terminal biotin on a linker: ahx)
T4 sequence (Q9Y3R0 145-248, limits assumed, looked up): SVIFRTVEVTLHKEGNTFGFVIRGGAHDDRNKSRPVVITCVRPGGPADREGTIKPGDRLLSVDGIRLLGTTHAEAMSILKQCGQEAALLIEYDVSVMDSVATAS

ARHGEF11, O15085 = target: T5, ARHGEF11, O15085; details: plain residues with an end cap or a label only (N-terminal biotin on a linker: ahx)
T5 sequence (O15085 42-136, limits assumed, looked up): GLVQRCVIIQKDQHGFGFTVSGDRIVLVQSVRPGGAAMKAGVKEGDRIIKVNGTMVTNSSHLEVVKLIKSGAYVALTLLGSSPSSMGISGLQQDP

HTRA4, P83105 = target: T6, HTRA4, P83105; details: plain residues with an end cap or a label only (N-terminal biotin on a linker: ahx)
T6 sequence (P83105 378-476, limits assumed, looked up): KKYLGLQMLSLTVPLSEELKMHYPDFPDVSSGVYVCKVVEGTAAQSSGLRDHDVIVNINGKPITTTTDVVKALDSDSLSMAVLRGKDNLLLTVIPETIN

GRIP1_5, Q9Y3R0 = target: T7, GRIP1_5, Q9Y3R0
T7 sequence (Q9Y3R0 568-668, limits assumed, looked up): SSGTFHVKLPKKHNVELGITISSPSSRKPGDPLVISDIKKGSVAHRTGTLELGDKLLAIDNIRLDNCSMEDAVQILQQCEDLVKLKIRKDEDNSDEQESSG

MPDZ_10, O75970 = target: T8, MPDZ_10, O75970; details: plain residues with an end cap or a label only (N-terminal biotin on a linker: ahx)
T8 sequence (O75970 1624-1722, limits assumed, looked up): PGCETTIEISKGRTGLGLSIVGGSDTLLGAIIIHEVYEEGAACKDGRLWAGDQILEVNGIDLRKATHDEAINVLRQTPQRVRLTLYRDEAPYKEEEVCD

GRID2IP_1, A4D2P6 = details: plain residues with an end cap or a label only (N-terminal biotin on a linker: ahx)
CARD11, Q9BXL7 = target: T9, CARD11, Q9BXL7; details: plain residues with an end cap or a label only (N-terminal biotin on a linker: ahx)
T9 sequence (Q9BXL7 662-765, limits assumed, looked up): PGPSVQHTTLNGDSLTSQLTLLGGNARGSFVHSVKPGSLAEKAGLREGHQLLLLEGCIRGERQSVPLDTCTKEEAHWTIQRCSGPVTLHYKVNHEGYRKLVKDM

Inadl_5, Q8NI35 = details: plain residues with an end cap or a label only (N-terminal biotin on a linker: ahx)
MAGI2_4, Q86UL8 = target: MAGI2_4, Q86UL8
PCLO, Q9Y6V0 = target: T10, PCLO, Q9Y6V0; details: plain residues with an end cap or a label only (N-terminal biotin on a linker: ahx)
T10 sequence (Q9Y6V0 4491-4600, limits assumed, looked up): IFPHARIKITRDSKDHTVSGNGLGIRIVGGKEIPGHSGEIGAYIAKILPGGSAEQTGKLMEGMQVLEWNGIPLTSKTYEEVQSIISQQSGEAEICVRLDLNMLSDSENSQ

GRID2IP_2, A4D2P6 = target: GRID2IP_2, A4D2P6
LRRC7, Q96NW7 = target: T11, LRRC7, Q96NW7
T11 sequence (Q96NW7 1440-1537, limits assumed, looked up): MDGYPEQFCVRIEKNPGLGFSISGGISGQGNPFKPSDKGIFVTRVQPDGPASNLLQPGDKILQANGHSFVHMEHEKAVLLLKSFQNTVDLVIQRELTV

LDB3, O75112 = target: LDB3, O75112
SHANK1, Q9Y566 = target: T12, SHANK1, Q9Y566; details: plain residues with an end cap or a label only (N-terminal biotin on a linker: ahx)
T12 sequence (Q9Y566 658-767, limits assumed, looked up): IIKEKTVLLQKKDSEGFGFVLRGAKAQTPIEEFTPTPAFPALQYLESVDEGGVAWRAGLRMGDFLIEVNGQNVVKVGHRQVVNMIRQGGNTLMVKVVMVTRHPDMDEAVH

NHERF4_2, Q86UT5 = target: NHERF4_2, Q86UT5
[1] = plain residues with an end cap or a label only (N-terminal biotin on a linker: ado-ado)
[2] = plain residues with an end cap or a label only (N-terminal biotin on a linker: ahx)

MAGI1_2, Q96QZ7, sequence (Q96QZ7 456-580): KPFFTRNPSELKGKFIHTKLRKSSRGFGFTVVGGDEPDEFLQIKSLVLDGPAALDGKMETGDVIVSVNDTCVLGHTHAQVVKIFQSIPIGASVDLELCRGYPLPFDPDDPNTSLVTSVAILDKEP
ARHGEF12, Q9NZN5-2, sequence (Q9NZN5 other isoform, or with tags, fused parts or gaps): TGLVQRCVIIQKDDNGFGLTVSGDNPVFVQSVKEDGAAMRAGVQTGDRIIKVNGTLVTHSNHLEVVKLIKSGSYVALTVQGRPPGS
CASK, O14936, sequence (O14936 487-570): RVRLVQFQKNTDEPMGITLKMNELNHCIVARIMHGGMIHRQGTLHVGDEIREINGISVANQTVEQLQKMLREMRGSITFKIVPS
PTPN3, P26045, sequence (P26045 505-587): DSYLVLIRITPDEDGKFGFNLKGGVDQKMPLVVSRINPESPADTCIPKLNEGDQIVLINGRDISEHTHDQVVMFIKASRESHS
MAGI2_4, Q86UL8, sequence (Q86UL8 772-865): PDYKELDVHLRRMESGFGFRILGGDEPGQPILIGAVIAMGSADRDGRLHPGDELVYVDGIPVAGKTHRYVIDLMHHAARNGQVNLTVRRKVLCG
GRASP, Q7Z6J2, sequence (Q7Z6J2 96-193): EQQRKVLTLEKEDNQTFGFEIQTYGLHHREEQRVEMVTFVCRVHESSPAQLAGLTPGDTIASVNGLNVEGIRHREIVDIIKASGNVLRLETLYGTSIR
Inadl_8, Q8NI35, sequence (Q8NI35 1425-1530): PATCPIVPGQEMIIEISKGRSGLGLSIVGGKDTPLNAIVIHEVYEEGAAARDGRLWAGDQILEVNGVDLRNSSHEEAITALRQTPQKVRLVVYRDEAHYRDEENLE
LDB3, O75112, sequence (O75112 1-94): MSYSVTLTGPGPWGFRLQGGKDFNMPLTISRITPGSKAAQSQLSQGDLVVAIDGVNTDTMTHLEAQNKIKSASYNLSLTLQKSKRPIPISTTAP
NHERF4_2, Q86UT5, sequence (Q86UT5 220-308): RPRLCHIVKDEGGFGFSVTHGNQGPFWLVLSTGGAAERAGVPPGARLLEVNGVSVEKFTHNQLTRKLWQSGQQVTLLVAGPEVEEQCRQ
GRID2IP_2, A4D2P6, sequence (A4D2P6 272-370): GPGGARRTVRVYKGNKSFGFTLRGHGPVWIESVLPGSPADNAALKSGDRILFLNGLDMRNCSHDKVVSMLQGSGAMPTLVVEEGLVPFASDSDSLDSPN
Inadl_5, Q8NI35, sequence (Q8NI35 673-780): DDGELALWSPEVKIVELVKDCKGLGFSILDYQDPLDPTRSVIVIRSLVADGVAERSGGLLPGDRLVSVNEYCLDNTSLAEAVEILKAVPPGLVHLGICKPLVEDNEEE
GRIP2_3, Q9C0E4, sequence (Q9C0E4 238-339): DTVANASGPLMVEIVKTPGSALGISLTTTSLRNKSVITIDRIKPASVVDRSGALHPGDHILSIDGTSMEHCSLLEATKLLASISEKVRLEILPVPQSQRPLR
GRID2IP_1, A4D2P6, sequence (A4D2P6 1-87): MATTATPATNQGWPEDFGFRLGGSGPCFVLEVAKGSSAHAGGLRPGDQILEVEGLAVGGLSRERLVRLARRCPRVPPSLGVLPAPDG

pKd (LNX2_2, Q8N448; [1]): below the threshold
pKd (MAGI1_2, Q96QZ7; [1]): below the threshold
pKd (PTPN3, P26045; [1]): 4.55
pKd (Inadl_8, Q8NI35; [1]): 4.63
pKd (CASK, O14936; [1]): below the threshold
pKd (GRASP, Q7Z6J2; [1]): 4
pKd (ARHGEF12, Q9NZN5-2; [1]): 4
pKd (NHERF3_1, Q5T2W1; [1]): 3.85
Binder: KRPEMTSSSV [MUC3B, MUC3A, Q02505;Q9H195]

pKd (GRIP2_3, Q9C0E4): below the threshold
pKd (LNX2_2, Q8N448; [2]): 3.99
pKd (MAGI1_2, Q96QZ7; [2]): 3.9
pKd (APBA2_1, Q99767; [2]): below the threshold
pKd (GRIP1_2, Q9Y3R0): below the threshold
pKd (ARHGEF11, O15085): below the threshold
pKd (PTPN3, P26045; [2]): 4.58
pKd (HTRA4, P83105): 3.9
pKd (GRIP1_5, Q9Y3R0; [2]): below the threshold
pKd (MPDZ_10, O75970): below the threshold
pKd (Inadl_8, Q8NI35; [2]): below the threshold
pKd (GRID2IP_1, A4D2P6): below the threshold
pKd (CASK, O14936; [2]): below the threshold
pKd (CARD11, Q9BXL7): below the threshold
pKd (Inadl_5, Q8NI35): below the threshold
pKd (MAGI2_4, Q86UL8; [2]): below the threshold
pKd (PCLO, Q9Y6V0): below the threshold
pKd (GRID2IP_2, A4D2P6; [2]): below the threshold
pKd (GRASP, Q7Z6J2; [2]): 3.47
pKd (LRRC7, Q96NW7; [2]): 4.75
pKd (LDB3, O75112; [2]): below the threshold
pKd (ARHGEF12, Q9NZN5-2; [2]): 3.88
pKd (NHERF3_1, Q5T2W1; [2]): 5.14
pKd (SHANK1, Q9Y566): 4.24
pKd (NHERF4_2, Q86UT5; [2]): below the threshold
Binder: HTHSYIETHV [CNKSR2, Q8WXI2]

pKd (MAGI1_2, Q96QZ7; [1]): 3.53
pKd (APBA2_1, Q99767; [1]): 3.54
pKd (GRIP1_5, Q9Y3R0; [1]): 3.62
pKd (MAGI2_4, Q86UL8; [1]): 3.83
pKd (GRID2IP_2, A4D2P6; [1]): 3.59
pKd (LRRC7, Q96NW7; [1]): 3.5
pKd (LDB3, O75112; [1]): 3.9
pKd (NHERF4_2, Q86UT5; [1]): 3.66
Binder: KSRVAFFEEL [NF2, P35240]
